Reference: patent publication US20080193980A1

Target: Human IgG
Assay: plate coated with human IgG, luminescence (Imax) after CaCl2

concentration at which the luminescence intensity reached a plateau: 10 ng/mL
Substance: Protein A-AQ fusion protein (from UniProt P02976 37-307; P07164 9-196)
